The record followed here is the RNAGym collection of RNA variant scans (doi:10.1073/pnas.2313332121).

B1: TPR t1 (parent)
chain: GACCAAUCUGCCCUCAGAGCUCGAGAACAUCUUCGGAUGCAGAGGAGGCAGGCUUCGGUGGCGCGAUAGCGCCAACGUCCUCAACCUCCAAUGCAUCCCACCACAUGAUGAUGCCUGAAGAGCCUUGGUUUUUUG

The variants in the data set derive from B1. In words: polymerase ribozyme fitness, log enrichment relative to wild type (log ratio); higher = more active; in vitro selection for triplet polymerase activity. The procedure, abridged: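 Genotype fitness is the logarithm of its enrichment divided by wild-type enrichment, using inverse-variance-weighted averages of replicates. That logarithm is base 2. Enrichment was measured by Illumina sequencing of input and output libraries from one triplicate in vitro selection round, with frozen incubation at −7 °C, on PCR-built, transcribed mutant libraries of each subunit of a heterodimeric triplet polymerase ribozyme, retaining genotypes with ≥10 input reads and ≥1 read per output.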
Turning to GACCAAUCUGCCCUCAGAGCUCGAGAACAUCUUCGGAUGCAGAGGAGGCAGGCUUCGGUGGCGCGAUAGCGCCAACGUCUUCAACCUCCAAUGCAUCCCACCACAUGAUGAUGCCUGAAGAGCCUUGGGUUUAUG, the “polymerase ribozyme fitness (log ratio)” value is -2.36.
Turning to GACCAAUCUGCCCUCAGAGCUCGAGAAGAUCUUCGGAUGCAGAGGAGGCAGGCUUCAGUGGCGCGAUAGCGCCAACGUCCUCAACCUCCAAUGCAUCCCACCACAUGAUGAUGCCUGAAGAGCCUUGGUUUUUUG, the “polymerase ribozyme fitness (log ratio)” value is -4.66.
As to GACCAAUCUGCCCUCAGAGCUCGAGAACAUCUUCGGAUGGAGAGGAGGCAGGCAUCGGUGCCGCGAUAGCGCCAACGUCCUCAACCUCCAAUGCAUCCCUCCACAUGAUGAUGCCUGAAGAGCCUUGGUUUUUUG, the “polymerase ribozyme fitness (log ratio)” value is -4.7.
Take GACCGAUUUGCCCUCAGAGCUCGAGAACAUCUUCGGAGGCAGAGGAGGCAGGCUUCGGUGGCGCGAUAGCGCCAACGUCCUCAACCUCCAAUGCAUCCCACCACAAGAUGAUGACUGAAGAGCCUUGGUUUUUUG: the “polymerase ribozyme fitness (log ratio)” value was -1.52.
The value for GACCAAUCUGCCCUCAGAGCUCGAGUACAUCUUCGGAUGCAGAGGAGGCAGGGUUCGGUGGCGCGAUAGCGCCAACGUCUUCAACCUCCAAUGCAUCCCACCACAUGAUGAUGCCUGAAGAGCCUUGGUUUUUUG was -3.08; that for GACCAAUCUGCCCUCAGAGCUCGAGAACAUCUUCGGAUGCAGAGGAGGCAGGCUUCGGUGGCGCGAUAGGGCCAACGUCCUCAACCUGCAAUGCAUCCCACCACAUGAUGAUGCCUGAAGAGCCUUGGUUUUUUG was -5.57; that for GACCAAUCUGCCCUCAGAGCUCGAGAACAUCUUCGGAUGGAGAGGAUGCAGGCUUCGGUGGCGCGAUAGCUCCAACGUCCUCAACCUCCAAUGCAUCCCACCACAUGAUGAUGCCUGAAGAGCCUUGGUUUUUUG was -6.34.
On to GACCAAUUUGUCCUCAGAACUCGAGAACAUCUUCGGAUGCAGAGGAGGCAGGCUUCGGUGGCGCGAUAGCGCACACGUCCUCAACAUCCAAUGCAUCCCACCACAUGAUGAUGCCUGAAGAGCCUUGGUUUUUUG, for which the “polymerase ribozyme fitness (log ratio)” value was -3.7.
The result for GACCAAUCUGCCCUCAGAGCUCGAGAACAUCUUCGGAUGCAGAGGAGGCAGGCUUCGGUGGCGCGAUAGCGCCAACGUCCUCAACAUCCAAUGCAUCCCACCAAAUGAUGAUGCCUGAACAGCCUUGGUAUUUUG reads -1.56; that for GACCAAUCUGCUCUCAGAGCUCGAGAGCAUCUUCGGAUGCAGAGGAGGCAGGCUUCGGUGGCGCGAUAGUGCCAACGUCCUCAACCUACAAUGCAUCCCACCACAUGAUGAUGCCUGAAGAGGCUAGGUUUUUUG, -2.52; that for GACCAAUCUGCCCUCAGAGCUCGAGAACAUCUUCGGAUGCAGAGGAGGCAGGCUUCGGUGGCGCGAUAGCGUCAACGUCCUCAACCUCCAAUGCAUACCACCACAUGAUGAUGCCUGAAGAGCCUUGGUUUUUUG, -5.06.
For GACCAAUCUGCCCUCAGUGCUCGAGAACAUCUUCGGAUGCAGAGGAGGCAGGCUUCGGUGGCGCGAUAGCGCCAACGUCCUCAACCUCCAAUGCAUCCCACCACAUGAUGAUGCCUGAAGAGCCGUGGUUUUUUG, the “polymerase ribozyme fitness (log ratio)” value is -3.41.
Take GACCAAUCUGCCCUCAUAGCUCGAGAACAUCUUCGGAUGCAGAGGAGGCAGGCUUUGGUGGCGCGAUAGCGCCAACGUCCUCAACCUCCAAUGCAUCCCACCACAUGAUGAUGCCUGAAGAGCCUUGGUUUUUUG: the “polymerase ribozyme fitness (log ratio)” value is -2.12.
For the variant GACCAAUCUGCCCUCAGAGCUCGAGAACGUCUUCGGAUGCAGAGGAGGCAGGCUUCGGUGGCGCGAUAGCGCCAACAACCUCAACCUCCAAUGCAUCCCACCACAUGAUGAUGCCUGAAGAGACUUGGUUUUUUG, the “polymerase ribozyme fitness (log ratio)” value is -2.27.
The value for GACCAAUCUGCCCUCAGAGCUCGAGAACAUCUUCGGAUGCAGAGGAGGCAGGCUUCGGUGGCGCGAUAGCGCCAACUUCCUCAACCUCUAAUGCAUCCCACCACAUGAUGAUGCCUGAAGAGCCUUGGUUUUUUG was -0.519; that for GACCAAUCUGCCAUCAGAGCUCGAGAACAUCUUCGGAUUCAGAGGAGGCAGGCUUCGGUGGCGCGAUAUCGCCAACGUCCUCAACCUCCAAUGCAUCCCACCACAUGAAGAUGCCUGAAGAGCCUUGGUUUUUUG was -5.33; that for GACCAAUCUGCCCUCAGAGCUCGAGAACAUCUUCGGAUGCAGGGGAGGCAGGCUUCGGUGGCGCGAUAGCGCCAACGUCCUCAACCUCCAAUGCAUCCCACCACAUGAUGAUGCCUGAAGGGCCUUGGAUUUUUG was -0.572.
With GACCAAUCUGCUCUCAGAGCUCGAGAACAUCUUCGGAUUCAGAGGAGGCAGGCUUCGGUGGCGCGAUAGCGCCAACGUCCUCAACCUCCAAUGCAUCCCACCACAUGAUGAUGCAUGAAGAGCCUUGGUUUUUUG, the “polymerase ribozyme fitness (log ratio)” value was -0.243.
Turning to GACCAAUCUGCCCUCAGAGCUCGAGAACAUCUUCGGAUUCAGAGGAGGAAGGCUUCGGUGGCGCGAUAGCGCCAACGUCCUCAACCUCCAAUGCAUCCCUCCACAAGAUGAUGCCUGAAGAGCCUUGGUUUUUUG, the “polymerase ribozyme fitness (log ratio)” value was -1.51.
For the variant GACCAAUCUGCCCUCAGAGCUCGAGAACAUCUUCGGAUGCUGAGGAGGCAGGCUUCGGUGGCGCGAUAGCGCCAACGUCCUCAACCUCCAAUGCAUCCCACCACAUGAUGAUGCCUGAAGAGCCUUGGCUUUUUG, the “polymerase ribozyme fitness (log ratio)” value is -0.914.
For the variant GACCAAUCUGCCCUUAGAGCUCGAGAACAUCUUCGGAUGCAGAGGAGGCAGGCUUCGGUGGCGCGAUAGCGUCAACGACCUCAAGCUCCAAUGCAUCACACCAGAUGAUGAUGCCUGAAGAGUCUUGCUUUUUUG, the “polymerase ribozyme fitness (log ratio)” value is -6.7.
